Results reported in patent US20250109215A1 (Xencor, published 2025).
Residue numbers refer to the chain shown, from its start.

B1: XENP16375 (bispecific antibody)
HC 1 (Fab-Fc): QVQLVQSGAEVKKPGASVKVSCKASGYTFTSYNMHWVRQAPGQRLEWMGAIYPGNGATSYSQKFQGRVTITADTSASTAYMELSSLRSEDTAVYYCARSYYMGGDWYFDVWGAGTLVTVSSASTKGPSVFPLAPSSKSTSGGTAALGCLVKDYFPEPVTVSWNSGALTSGVHTFPAVLQSSGLYSLSSVVTVPSSSLGTQTYICNVNHKPSDTKVDKKVEPKSCDKTHTCPPCPAPPVAGPSVFLFPPKPKDTLMISRTPEVTCVVVDVKHEDPEVKFNWYVDGVEVHNAKTKPREEEYNSTYRVVSVLTVLHQDWLNGKEYKCKVSNKALPAPIEKTISKAKGQPREPQVYTLPPSREEMTKNQVSLTCDVSGFYPSDIAVEWESDGQPENNYKTTPPVLDSDGSFFLYSKLTVDKSRWEQGDVFSCSVMHEALHNHYTQKSLSLSPGK
HC 2 (scFv-Fc): not shown
light: QIVLTQSPSSLSASVGDRVTITCRASWSVSYIHWFQQKPGKSPKPLIYATSNLASGVPVRFSGSGSGTDYTLTISSLQPEDFATYYCQQWTHNPPTFGGGTKVEIKRTVAAPSVFIFPPSDEQLKSGTASVVCLLNNFYPREAKVQWKVDNALQSGNSQESVTEQDSKDSTYSLSSTLTLSKADYEKHKVYACEVTHQGLSSPVTKSFNRGEC
notes: anti-CD3 scFv H1.107_L1.47; also called Anti-CD20 (C2B8_H1.202_L1.113) x Anti-CD3 (H1.107_L1.47) Fab-scFv-Fc
B2: XENP16374 (bispecific antibody)
HC 1 (Fab-Fc): B1 HC 1 (Fab-Fc)
HC 2 (scFv-Fc): not shown
light: B1 light
notes: anti-CD3 scFv H1.106_L1.47; also called Anti-CD20 (C2B8_H1.202_L1.113) x Anti-CD3 (H1.106_L1.47) Fab-scFv-Fc
B3: XENP16373 (bispecific antibody)
HC 1 (Fab-Fc): B1 HC 1 (Fab-Fc)
HC 2 (scFv-Fc): EVQLVESGGGLVQPGGSLRLSCAASGFTFSTYAMNWVRQAPGKGLEWVGRIRSKYNNYATYYADSVKGRFTISRDDSKNTLYLQMNSLRAEDTAVYYCVRHGNFGDQYVSWFDYWGQGTLVTVSSGKPGSGKPGSGKPGSGKPGSQAVVTQEPSLTVSPGGTVTLTCGSSTGAVTTSNYANWVQQKPGKSPRGLIGGTNKRAPGVPARFSGSLLGGKAALTISGAQPEDEADYYCALWYSNHWVFGGGTKLTVLEPKSSDKTHTCPPCPAPPVAGPSVFLFPPKPKDTLMISRTPEVTCVVVDVKHEDPEVKFNWYVDGVEVHNAKTKPREEQYNSTYRVVSVLTVLHQDWLNGKEYKCKVSNKALPAPIEKTISKAKGQPREPQVYTLPPSREQMTKNQVKLTCLVKGFYPSDIAVEWESNGQPENNYKTTPPVLDSDGSFFLYSKLTVDKSRWQQGNVFSCSVMHEALHNHYTQKSLSLSPGK
light: B1 light
notes: anti-CD3 scFv H1.105_L1.47; also called Anti-CD20 (C2B8_H1.202_L1.113) x Anti-CD3 (H1.105_L1.47) Fab-scFv-Fc
B4: XENP16376 (bispecific antibody)
HC 1 (Fab-Fc): B1 HC 1 (Fab-Fc)
HC 2 (scFv-Fc): not shown
light: B1 light
notes: anti-CD3 scFv H1.108_L1.47; also called Anti-CD20 (C2B8_H1.202_L1.113) x Anti-CD3 (H1.108_L1.47) Fab-scFv-Fc
B5: XENP14390 (bispecific antibody)
HC 1 (Fab-Fc): B1 HC 1 (Fab-Fc)
HC 2 (scFv-Fc): not shown
light: B1 light
notes: anti-CD3 scFv H1.33_L1.47; also called Anti-CD20 (C2B8_H1.202_L1.113) x Anti-CD3 (H1.33_L1.47) Fab-scFv-Fc; CD3med
B6: XENP14388 (bispecific antibody)
HC 1 (Fab-Fc): B1 HC 1 (Fab-Fc)
HC 2 (scFv-Fc): not shown
light: B1 light
notes: anti-CD3 scFv H1.31_L1.47; also called Anti-CD20 (C2B8_H1.202_L1.113) x Anti-CD3 (H1.31_L1.47) Fab-scFv-Fc; CD3low
B7: 13735 7G3_H1.86_L1_Fab_His (Fab, V domains shown)
VH: QVQLVQSGAEVKKPGASVKVSCKASGYTFTDYYMKWVRQAPGQSLEWMGDIIPSNGATFYNQKFKGKATLTVDRSTSTAYMELSSLRSEDTAVYYCTRSHLLRASWFAYWGQGTLVTVSS
VL: DFVMTQSPDSLAVSLGERATINCKSSQSLLNSGNQKNYLTWYQQKPGQPPKLLIYWASTRESGVPDRFTGSGSGTDFTLTISSLQAEDVAVYYCQNDYSYPYTFGGGTKLEIKR
notes: also called XENP13735; copies: 1 + 1
B8: 13740 7G3_H1.91_L1_Fab_His (Fab, V domains shown)
VH: B7 VH with K65Q, K67R, A68V, L70M, E82H
VL: B7 VL
notes: also called XENP13740; copies: 1 + 1
B9: 13855 7G3_H1_L1.57_Fab_His (Fab, V domains shown)
VH: B7 VH with K65Q, K67R, A68V, L70M
VL: B7 VL with S32T
notes: also called XENP13855
B10: 13743 7G3_H1.94_L1_Fab_His (Fab, V domains shown)
VH: B7 VH with R38K, A40S, P41H, Q43K, K65Q, K67R, A68V, L70M
VL: B7 VL
notes: also called XENP13743; copies: 1 + 1
B11: 13737 7G3_H1.88_L1_Fab_His (Fab, V domains shown)
VH: B7 VH with P41H, K65Q, K67R, A68V, L70M
VL: B7 VL
notes: also called XENP13737; copies: 1 + 1
B12: 13741 7G3_H1.92_L1_Fab_His (Fab, V domains shown)
VH: B7 VH with K65Q, K67R, A68V, L70M, R87T
VL: B7 VL
notes: also called XENP13741; copies: 1 + 1
B13: 13738 7G3_H1.89_L1_Fab_His (Fab, V domains shown)
VH: B7 VH with M48I, K65Q, K67R, A68V, L70M
VL: B7 VL
notes: also called XENP13738; copies: 1 + 1
B14: XENP13677 (bispecific antibody)
HC 1 (Fab-Fc): B1 HC 1 (Fab-Fc)
HC 2 (scFv-Fc): not shown
light: B1 light
notes: anti-CD3 scFv H1.30_L1.47; also called Anti-CD20 (C2B8_H1.202_L1.113) x Anti-CD3 (H1.30_L1.47) Fab-scFv-Fc
B15: XENP14392 (bispecific antibody)
HC 1 (Fab-Fc): B1 HC 1 (Fab-Fc)
HC 2 (scFv-Fc): not shown
light: B1 light
notes: anti-CD3 scFv H1.89_L1.47; also called Anti-CD20 (C2B8_H1.202_L1.113) x Anti-CD3 (H1.89_L1.47) Fab-scFv-Fc
B16: XENP14389 (bispecific antibody)
HC 1 (Fab-Fc): B1 HC 1 (Fab-Fc)
HC 2 (scFv-Fc): not shown
light: B1 light
notes: anti-CD3 scFv H1.32_L1.47; also called Anti-CD20 (C2B8_H1.202_L1.113) x Anti-CD3 (H1.32_L1.47) Fab-scFv-Fc
B17: XENP14393 (bispecific antibody)
HC 1 (Fab-Fc): B1 HC 1 (Fab-Fc)
HC 2 (scFv-Fc): not shown
light: B1 light
notes: anti-CD3 scFv H1.90_L1.47; also called Anti-CD20 (C2B8_H1.202_L1.113) x Anti-CD3 (H1.90_L1.47) Fab-scFv-Fc
B18: 13963 7G3_H1.109_L1_Fab_His (Fab, V domains shown)
VH: B7 VH with V5Q, R38K, A40S, P41H, Q43K, T97A
VL: B7 VL
notes: also called XENP13963
B19: 13961 7G3_H1.107_L1_Fab_His (Fab, V domains shown)
VH: B7 VH with V5Q, T97A
VL: B7 VL
notes: also called XENP13961
B20: 13965 7G3_H1.107_L1.57_Fab_His (Fab, V domains shown)
VH: B7 VH with V5Q, T97A
VL: B7 VL with S32T
notes: also called XENP13965

biological target: T1, human CD3 (human, UniProt P07766 23-126; P04234 22-105); test: SPR; human CD3-Fc (printed 'CD388-Fc', Sino Biological) covalently bound to the chip; test article passed over at 31.25, 125, 500 and 2000 nM
T1 construct: The legend says only human CD3
T1 sequence (P07766 23-126, chain 1 of 2): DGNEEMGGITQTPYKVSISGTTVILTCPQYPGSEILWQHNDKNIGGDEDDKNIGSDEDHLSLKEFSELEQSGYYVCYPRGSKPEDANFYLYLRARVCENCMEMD
T1 sequence (P04234 22-105, chain 2 of 2): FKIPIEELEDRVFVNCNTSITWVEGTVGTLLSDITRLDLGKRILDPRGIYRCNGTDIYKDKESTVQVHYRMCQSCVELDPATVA

Point of comparison: B3, Kd 4000 nM. Against it:
- B1 — 4-fold lower, 1000 nM
- B2 — 3.1-fold lower, 1300 nM
- B4 — 3.6-fold lower, 1100 nM
- B5 — 18-fold lower, 220 nM
- B6 — 3.3-fold lower, 1200 nM

biological target: T2, human CD123 (human, UniProt P26951 19-305, limits assumed); test: off-rate screen of Fab-His on a Biacore CD123 chip (Example 3), relative to 7G3 H1L1 Fab
T2 construct: Construct on the chip is not described; also called CD123 chip
T2 sequence (looked up): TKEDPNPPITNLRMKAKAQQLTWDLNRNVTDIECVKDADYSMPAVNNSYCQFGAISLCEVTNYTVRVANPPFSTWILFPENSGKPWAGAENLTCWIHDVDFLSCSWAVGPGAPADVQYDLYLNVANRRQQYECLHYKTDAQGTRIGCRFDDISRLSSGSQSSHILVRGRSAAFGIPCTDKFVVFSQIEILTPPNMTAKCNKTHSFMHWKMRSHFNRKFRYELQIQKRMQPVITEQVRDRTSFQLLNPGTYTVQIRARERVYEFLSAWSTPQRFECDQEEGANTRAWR

Point of comparison: B13, “Fold improvement in off-rate vs. H1L1” value 1.29 fold. Against it:
- B7 — higher, 4.61 fold
- B8 — lower, 1.04 fold
- B9 — lower, 0.84 fold
- B10 — lower, 0.65 fold
- B11 — lower, 0.96 fold
- B12 — higher, 1.89 fold

biological target: T1, human CD3; test: SPR; human CD3-Fc (printed 'CD388-Fc', Sino Biological) covalently bound to the chip; test article passed over at 3.125, 12.5, 50 and 200 nM

Point of comparison: B17, Kd 120 nM. Against it:
- B14 — 24-fold lower, 4.9 nM
- B15 — the same, 120 nM
- B5 — within 1.5-fold, 110 nM
- B16 — 2.7-fold lower, 44 nM
- B6 — 17-fold higher, ~2000 nM

biological target: T2, human CD123; test: Biacore, Fab-His on CD123 (Example 3; the sheet names no assay)

Point of comparison: B20, Ka 1.6e+10 M⁻¹. Against it:
- B18 — within 1.5-fold, 1.35e+10 M⁻¹
- B19 — 2.4-fold lower, 6.79e+09 M⁻¹

Point of comparison: B19, Kd 0.147 nM. Against it:
- B18 — 2-fold lower, 0.0742 nM
- B20 — 2.4-fold lower, 0.0624 nM

Point of comparison: B19, koff 8.84e-05 s⁻¹. Against it:
- B18 — 1.6-fold lower, 5.53e-05 s⁻¹
- B20 — 2.3-fold lower, 3.82e-05 s⁻¹

Point of comparison: B19, kon 600000 M⁻¹ s⁻¹. Against it:
- B18 — within 1.5-fold, 745000 M⁻¹ s⁻¹
- B20 — within 1.5-fold, 612000 M⁻¹ s⁻¹

biological target: T3, cyno CD3 (cynomolgus monkey, UniProt Q95LI5 22-117; Q95LI8 22-105); test: SPR; cynomolgus monkey CD3-Fc (printed 'CD388-Fc', Sino Biological) covalently bound to the chip; test article passed over at 3.125, 12.5, 50 and 200 nM
T3 construct: The legend says only cyno CD3; also called cynomolgus monkey CD3
T3 sequence (Q95LI5 22-117, form in doubt, chain 1 of 2): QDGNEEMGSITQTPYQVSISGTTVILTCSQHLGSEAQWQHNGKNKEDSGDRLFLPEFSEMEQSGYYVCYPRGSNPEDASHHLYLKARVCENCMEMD
T3 sequence (Q95LI8 22-105, form in doubt, chain 2 of 2): as the sequence (P04234 22-105, chain 2 of 2) above, with I5V, N15K, I20V, S32T, D33N, I34N, T64A, S74N, V83L counted along it

Point of comparison: B15, Kd 110 nM. Against it:
- B14 — 20-fold lower, 5.6 nM
- B5 — within 1.5-fold, 100 nM
- B16 — 2.4-fold lower, 45 nM
- B17 — within 1.5-fold, 120 nM
- B6 — 9.1-fold higher, ~1000 nM

biological target: T3, cyno CD3; test: SPR; cynomolgus monkey CD3-Fc (printed 'CD388-Fc', Sino Biological) covalently bound to the chip; test article passed over at 31.25, 125, 500 and 2000 nM

Point of comparison: B3, Kd 420 nM. Against it:
- B1 — 2.1-fold higher, 880 nM
- B2 — 2.6-fold higher, 1100 nM
- B4 — 2-fold higher, 860 nM
- B5 — 2.6-fold lower, 160 nM
- B6 — 2.9-fold higher, 1200 nM
